From publication PMC11964938

Target: purified, recombinant myristoylated HIV-1 MA protein (HIV-1 pNL4-3)

HIV-1 SP2 added to MA on lipid monolayers (peptide)
share of sub-images that contributed to mature-like MA lattice classes on lipid monolayers in the presence of SP2 (7% mature-like and 7% immature-like without SP2; no immature-like classes with SP2): 47%
